Measurements: publication PMC3919030

Assays:
Settings in all cases: remark: other sources report otherwise
[1] = molecular target: T1, S. cerevisiae Vps4p (wild type) (S. cerevisiae), P52917; assay: SEC
T1 chain: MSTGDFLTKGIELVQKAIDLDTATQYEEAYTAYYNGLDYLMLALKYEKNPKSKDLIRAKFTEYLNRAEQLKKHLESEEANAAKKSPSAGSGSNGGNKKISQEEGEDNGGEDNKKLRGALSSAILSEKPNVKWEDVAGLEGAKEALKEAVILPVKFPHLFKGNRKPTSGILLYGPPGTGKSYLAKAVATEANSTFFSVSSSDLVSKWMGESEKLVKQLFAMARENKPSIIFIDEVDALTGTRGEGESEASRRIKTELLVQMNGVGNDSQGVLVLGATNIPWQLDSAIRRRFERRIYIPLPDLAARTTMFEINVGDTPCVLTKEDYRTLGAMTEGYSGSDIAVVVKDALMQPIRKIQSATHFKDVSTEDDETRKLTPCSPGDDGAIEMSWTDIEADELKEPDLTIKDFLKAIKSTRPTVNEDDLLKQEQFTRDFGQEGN

[2] = molecular target: T1, S. cerevisiae Vps4p (wild type) (S. …); assay: SEC
[3] = molecular target: T1, S. cerevisiae Vps4p (wild type) (S. …); assay: SEC
[4] = molecular target: T1, S. cerevisiae Vps4p (wild type) (S. …); assay: SEC
[5] = molecular target: T1, S. cerevisiae Vps4p (wild type) (S. …); assay: AUC
[6] = molecular target: T1, S. cerevisiae Vps4p (wild type) (S. …); assay: AUC

stoichiometry N [1]: 6 | stoichiometry N [2]: 6 | stoichiometry N [3]: 6 | stoichiometry N [4]: 6 | stoichiometry N [5]: 6 | stoichiometry N [6]: 6
B1: S. cerevisiae Vps4p (wild type), P52917 1-437 (enzyme)
chain: T1 chain
